The text below walks through data of patent US20040161756A1, “Substrate linked directed evolution (slide)” (priority 2000, published 2004).

One assay has as its system loxP sites. Nature of the assay: Recombination of pEVO-loxP^2 excision substrate in E. coli. It is filed as cell-based. The settings on record: expressed from the arabinose promoter, even at very low expression levels. From the text:
(§1) Evolution vectors: The pEVO vector series is based on the plasmid pBAD-33 (Guzman et al., J Bacteriol 177, 4121-30 (1995)). pEVO-loxP^2, pEVO-3, pEVO-6 and pEVO-10 are identical except for the recognition target sites for the recombinase (see also FIG. 3). pEVO-loxP^2 contains two tandemly repeated loxP sites as they exist in the bacteriophage P1, spaced by 690 bp. pEVO-3, contains two recognition target sites which differ in 3 nucleotides per halfsite from a loxP site. The spacer in pEVO-3 is identical to the one found in loxP sites from bacteriophage P1. pEVO-6 recognition target sites (loxH) have the spacer sequence altered in all eight positions in addition to the three nucleotides changes present in pEVO-3. pEVO-10 contains two loxH sites as well as two loxP sites, which are intertwined. Recombinase expression levels can be titrated by the amount of L-arabinose added to the medium.
(§2) To test the method of the invention, Cre recombinase was first cloned into the vector pEVO-loxP^2, which contains two loxP sites, oriented as an excision substrate. […] As a first step, the three nucleotides different in the loxH halfsites were introduced (pEVO-3). […] Libraries of mutated recombinase were cloned into pEVO3 and screened at low recombinase expression levels.

Another assay has as its system pSVpaH (loxH sites). Nature of the assay: Recombination reporter assay in CHO cells, pSVpaH. Format: cell-based, chinese hamster. The settings on record: co-transfection. From the text:
(§3) a) Plasmids expressing the depicted recombinases from the PGK promoter were co-transfected with the recombination reporter plasmids pSVpaX (loxP sites) or pSVpaH (loxH sites) into CHO cells. Illustrations of plasmids pSVpaX, pSVpaH, and pSVpaZ is presented. White triangles depict loxH sites, grey triangles loxP sites, and black triangles FRT sites. SV40═SV40 early promoter; pac=puromycin acetytransferase.
(§4) Cell culture: Chinese hamster ovary (CHO) cells were transfected with plasmid DNA using Lipofectamine (GibcoBRL). Crude cell extracts were prepared after 36 hours and Luciferase activity of cell extracts were determined with the Luciferase assay system from Promega. Relative β-galactosidase activities were measured with the Galacto-Light kit from Tropix. The Cre recombination reporter plasmid pSVpaX has been described earlier (Buchholz et al., Nucleic Acids Res 24, 4256-62 (1996)). pSVpaH is identical to pSVpaX except that the loxP sites were exchanged with loxH sites. […] Recombination efficiencies were calculated from measured β-galactosidase activities, corrected by transformation efficiencies assayed by Luciferase measurements.
(§5) The recombination properties of Fre1 and Fre3 were evaluated in mammalian cells, by co-transfecting chinese hamster ovary (CHO) cells with reporter and recombinase expression plasmids (FIG. 6a). […]

The test system of another assay is pSVpaX (loxP sites). Nature of the assay: Recombination reporter assay in CHO cells, pSVpaX. It is filed as cell-based, chinese hamster. The settings on record: co-transfection, within 36 hours, from β-galactosidase activities.
Text: as §3, §4, §5
In general terms: Reporter assays use an easily measured gene product as a stand-in for the process of interest.

The subject of assay [1] is recognition target sites which differ in 3 nucleotides per halfsite from a loxP site. Nature of the assay: Recombination of pEVO-3 in E. coli. It is filed as cell-based.
Text: as §1, §2

The next assay deals with loxH sites. Nature of the assay: Recombination of loxH sites in E. coli (initial experiments and pEVO-6 vector, plasmid gel). Format: cell-based.
Text: as §1

B1: Cre: site specific recombinase that recognises the 34 bp loxP sequence; wild type starting protein (protein, UniProt P06956 1-343, looked up)
Recombinase cre: MSNLLTVHQNLPALPVDATSDEVRKNLMDMFRDRQAFSEHTWKMLLSVCRSWAAWCKLNNRKWFPAEPEDVRDYLLYLQARGLAVKTIQQHLGQLNMLHRRSGLPRPSDSNAVSLVMRRIRKENVDAGERAKQALAFERTDFDQVRSLMENSDRCQDIRNLAFLGIAYNTLLRIAEIARIRVKDISRTDGGRMLIHIGRTKTLVSTAGVEKALSLGVTKLVERWISVSGVADDPNNYLFCRVRKNGVAAPSATSQLSTRALEGIFEATHRLIYGAKDDSGQRYLAWSGHSARVGAARDMARAGVSIPEIMQAGGWTNVNIVMNYIRNLDSETGAMVRLLEDGD
With B1, in the assay with loxP sites, the “recombination of plasmid pEVO-loxP^2” value is recorded as “efficiently recombined”. Besides, the “recombination of pSVpaH” value in the assay with pSVpaH (loxH sites) is recorded as “little recombination”. Besides, the “reporter pSVpaX recombined” value with pSVpaX (loxP sites) is listed as “approximately 75%”. Also, the entries for the “recombination of pEVO-3” value in assay [1] (higher expression levels) and in assay [1] (low expression levels) were “recombination was observed” and “did not recombine”, respectively. In the assay with loxH sites (even when induced with arabinose), the “recombination of pEVO-6 (loxH sites)” value is given as “no recombination”. The “recombination of loxH sites” value with loxH sites (initial recombination experiments in E. coli) is given as “does not recombine this site at measurable frequency”.
